In patent US20210388105A1 (ELPISCIENCE SUZHOU BIOPHARMA, published 2021):
Where a chain is given by its changes, count along the chain named.

Columns and labels:
Test in all cases: FACS, mutant-EGFP on HEK293F cells
[1] = biological target: T1, KW27-18 (human CD39 mutant, C-terminal EGFP) (human, UniProt P49961 1-510)
T1 construct: expressed on HEK293F cells; not shown: C-terminal EGFP fusion (vector pCMV3-GFPSpark)
T1 chain: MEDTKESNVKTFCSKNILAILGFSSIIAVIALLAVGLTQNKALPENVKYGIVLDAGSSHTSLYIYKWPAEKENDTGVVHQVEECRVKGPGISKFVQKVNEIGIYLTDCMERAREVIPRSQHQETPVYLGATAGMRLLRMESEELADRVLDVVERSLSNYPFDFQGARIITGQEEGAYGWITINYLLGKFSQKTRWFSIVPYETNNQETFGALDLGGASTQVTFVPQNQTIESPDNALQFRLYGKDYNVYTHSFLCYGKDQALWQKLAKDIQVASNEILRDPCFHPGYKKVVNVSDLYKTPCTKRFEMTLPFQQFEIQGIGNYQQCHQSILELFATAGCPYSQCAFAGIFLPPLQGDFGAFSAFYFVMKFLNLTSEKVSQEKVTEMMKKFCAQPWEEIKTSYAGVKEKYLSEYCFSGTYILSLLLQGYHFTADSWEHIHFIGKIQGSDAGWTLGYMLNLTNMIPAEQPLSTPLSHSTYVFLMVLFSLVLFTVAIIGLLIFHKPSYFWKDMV
Protocol: (§1) Briefly, the human CD39 mutants were generated by gene synthesis and then cloned into an expression vector pCMV3-GFPSpark. The vectors containing the validated mutated sequences were prepared and transfected into HEK293F cells. Three days post transfection, the cells were collected to testing EGFP for transgene expression. A range of dosages of antibodies (start from 100 nM, 3-folds dilution, 11 points) were tested on the 20 generated mutants and stained by AlexFluor647 labelled anti-hIgG by FACS. Antibody binding was descripted as relative binding which is derived from AlexFluor647 intensity divided by GFP intensity.

[2] = biological target: T2, KW27-8 (human CD39 mutant, C-terminal EGFP) (human, UniProt P49961 1-510)
T2 construct: expressed on HEK293F cells; not shown: C-terminal EGFP fusion (vector pCMV3-GFPSpark)
T2 chain: T1 chain with A273S, N275A, I277S, R279A, A334N, A336S, G337Y, A346N
Protocol: as §1

[3] = biological target: T3, KW27-14 (human CD39 mutant, C-terminal EGFP) (human, UniProt P49961 1-510)
T3 construct: expressed on HEK293F cells; not shown: C-terminal EGFP fusion (vector pCMV3-GFPSpark)
T3 chain: T1 chain with A334N, A336S, G337Y, A346N, K388N, Q392K, P393S, E396A
Protocol: as §1

[4] = biological target: T4, KW27-19 (human CD39 mutant, C-terminal EGFP) (human, UniProt P49961 1-510)
T4 construct: expressed on HEK293F cells; not shown: C-terminal EGFP fusion (vector pCMV3-GFPSpark)
T4 chain: T1 chain with Q228A, I230S, D234A, Q238A, A334N, A336S, G337Y, A346N
Protocol: as §1

Measured: binding result

B1: Antibody 9-8B (antibody, V domains shown)
VH: QIQLVQSGPELKKPGETVKISCKASGYTFTHYGMNWVKQAPGKGLKWMGWINTYTGELTYADDFKGRFAFSLETSASTAYLQINNLKNEDTATYFCARRAYYRYDYVMDYWGQGTSVTVSS
VL: DIVMTQSQKFMSTSVGDRVSVTCKASHNVGTNVAWYQQKPGQSPKALIYSASYRYSGVPGRFTGSGSGTDFTLTISNVQSEDLAEYFCHQYNNYPYTFGGGTKLEIK
binds: [1] | [2] | [3] | [4]

B2: hu23.H5L5 (antibody, V domains shown)
VH: QVQLVQSGAEVKKPGASVKVSCKASGYNLKDTFLHWVRQAPGQGLEWMGRIDPANGNIKYDPKFQGRVTITADTSANTAYMELISLRSEDTAVYYCANSPYYYGSGYRIFDVWGQGTTVTVSS
VL: QIVLTQSPATLSLSPGERATLSCSAFSSVNYMHWYQQKPGQAPRLLIYTTSNLASGIPTRFSGSGSGTSYTLTISSLEPEDFAVYYCQQRSTYPFTFGQGTKLEIK
notes: humanized c23
binds: [1] | [2] | [3] | [4]

B3: Antibody T895 (antibody, V domains shown)
VH: EVQLQQSGPELVKPGASVKMSCKASGYTFTDYNMHWVKQSHGRTLEWIGYIVPLNGGSTFNQKFKGRATLTVNTSSRTAYMELRSLTSEDSAAYYCARGGTRFAYWGQGTLVTVSA
VL: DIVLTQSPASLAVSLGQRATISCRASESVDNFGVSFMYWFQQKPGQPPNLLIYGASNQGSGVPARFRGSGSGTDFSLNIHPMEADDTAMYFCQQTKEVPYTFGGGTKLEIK
notes: also called 31895
binds: [1] | [2] | [3] | [4]

B4: c34 (antibody, V domains shown)
VH: EIQVQQSGPELVKPGASVKVSCKASGYSFTDYNMYWVKQSHGKSLEWIGFIDPYNGYTSYNQKFKGKATLTIDKSSSTAFMHLNSLTSEDSAVYYCAIYGYDDAYYFDYWGQGTTLTVSS
VL: QIVLTQSPAIMSASPGEKVTITCSATSSVSYMHWFRQKPGTSPKLWIYSTSNLASGVPARFSGSGSGTSYSLTISRMAAEDAATYYCQQRITYPFTFGSGTKLEIT
notes: its making is not described; also called chimeric antibody c34
binds: [1] | [2] | [3] | [4]

B5: c35 (antibody, V domains shown)
VH: EVRLQQSGAELVKPGASVKLSCTASGFNIEDTYVHWMKQRPEQGLEWIGRIDPAIDNSKYDPKFQGKATITAVSSSNTAYLQLSSLTSEDTAVYYCALYDGYNVYAMDYWGQGTSVTVSS
VL: DIVMTQAAFSNPVTLGTSASISCRSSKNLLHSNGITYLYWYLQRPGQSPQLLIYRASTLASGVPNRFSGSESGTDFTLRISRVEAEDVGVYYCAQLLELPHTFGGGTKLEIK
notes: its making is not described; also called chimeric antibody c35
binds: [1] | [2] | [3] | [4]
